PMC8213764, “Human intelectin-1 (ITLN1) genetic variation and intestinal expression” (Scientific Reports, 2021)
Where “and” joins values, the source holds several entries; their conditions need not be identical. Identical values can stand only once.

B1: Human intelectin-1 (ITLN1) V109, from V109 homozygote (VV) ileal specimens (natural protein, human (endogenous in ileum), UniProt Q8WWA0 19-298, looked up)
chain: TDEANTYFKEWTCSSSPSLPRSCKEIKDECPSAFDGLYFLRTENGVIYQTFCDMTSGGGGWTLVASVHENDMRGKCTVGDRWSSQQGSKAVYPEGDGNWANYNTFGSAEAATSDDYKNPGYYDIQAKDLGIWHVPNKSPMQHWRNSSLLRYRTDTGFLQTLGHNLFGIYQKYPVKYGEGKCWTDNGPVIPVVYDFGDAQKTASYYSPYGQREFTAGFVQFRVFNNERAANALCAGMRVTGCNTEHHCIGGGGYFPEASPQQCGDFSGFDWSGYGTHVGYS
modifications: single glycosylation site at N163
notes: Human intelectin-1 (ITLN1) with valine at position 109 (rs2274907 A allele), endogenous in ileal mucosa; also called VV genotype; V109-ITLN1; source: endogenous, ileal specimens of V109 homozygote individuals, in lysate
B2: Human intelectin-1 (ITLN1) D109, from D109 homozygote (DD) ileal specimens (natural protein, human (endogenous in ileum), UniProt Q8WWA0 19-298, looked up)
chain: TDEANTYFKEWTCSSSPSLPRSCKEIKDECPSAFDGLYFLRTENGVIYQTFCDMTSGGGGWTLVASVHENDMRGKCTVGDRWSSQQGSKADYPEGDGNWANYNTFGSAEAATSDDYKNPGYYDIQAKDLGIWHVPNKSPMQHWRNSSLLRYRTDTGFLQTLGHNLFGIYQKYPVKYGEGKCWTDNGPVIPVVYDFGDAQKTASYYSPYGQREFTAGFVQFRVFNNERAANALCAGMRVTGCNTEHHCIGGGGYFPEASPQQCGDFSGFDWSGYGTHVGYS
modifications: single glycosylation site at N163
notes: Human intelectin-1 (ITLN1), natural missense variant rs2274907 (T allele) with aspartic acid at position 109, endogenous in ileal mucosa; Natural allele (rs2274907 T); also called DD genotype; D109-ITLN1; source: endogenous, ileal specimens of D109 homozygote individuals, in lysate

Target: the molecule itself
Experiment: non-reducing SDS-PAGE immunoblot; human ileal lysates (150 mM NaCl, 1% Triton X-100, 0.5% sodium deoxycholate, 0.1% SDS, 50 mM Tris pH 8.0), heated at 95 °C for 30 min without 2-mercaptoethanol, gradient SDS-PAGE (4-20%), immunoblot; oligomers stable under denaturing conditions

Protein | stoichiometry N
B1 | 3 and 6
B2 | 3 and 6
